Reference: patent publication US20160010082A1

Target: YPet-Mona
Assay: flow cytometry of E. coli displaying the construct, 50 nM YPet-Mona; 30 minutes of expression; reference CPX display

YPet-Mona, sequence (O89100 263-322): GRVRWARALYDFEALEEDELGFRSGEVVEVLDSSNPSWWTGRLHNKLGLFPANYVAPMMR

B1: eCPX displaying the P2 peptide at the C-terminus (protein)
chain: GQSGQGGQSGQSGDYNKNQYYGITAGPAYRINDWASIYGVVGVGYGKFQTTEYPTYKHDTSDYGFSYGAGLQFNPMENVALDFSYEQSRIRSVDVGTWILSVGYRFGSKSRRATSTVTGGYAQSDAQGQMNKMGGFNLKYRYEEDNSPLGVIGSFTYTEKSRTASGGQSGQPAPSIDRSTKPPL
fold improved display level compared to CPX: 9 fold
